Columns and labels:
[1] = biological target: T1, HOD (WT HOD = HOD C69S); (1H)-3-hydroxy-4-oxoquinaldine 2,4-dioxygenase (Paenarthrobacter nitroguajacolicus, UniProt O31266, C69S/H251A); experiment: X-ray crystal structure, […] Å, crystal soaked with QND; type: binding; details: 2 mM QND soak about 2 h, pH 7.0; active site
T1 construct: full-length HOD C69S in pQE30 (His-tag vector, Ni column); ~31 kDa monomer

[2] = biological target: T2, HOD (WT HOD = HOD C69S); (1H)-3-hydroxy-4-oxoquinaldine 2,4-dioxygenase (Paenarthrobacter nitroguajacolicus, UniProt O31266, C69S); experiment: anaerobic stopped-flow, QND deprotonation at […] nm, kobs vs [QND] fit; type: binding
T2 construct: full-length HOD C69S in pQE30 (His-tag vector, Ni column); ~31 kDa monomer
T2 sequence (O31266 whole entry C69S): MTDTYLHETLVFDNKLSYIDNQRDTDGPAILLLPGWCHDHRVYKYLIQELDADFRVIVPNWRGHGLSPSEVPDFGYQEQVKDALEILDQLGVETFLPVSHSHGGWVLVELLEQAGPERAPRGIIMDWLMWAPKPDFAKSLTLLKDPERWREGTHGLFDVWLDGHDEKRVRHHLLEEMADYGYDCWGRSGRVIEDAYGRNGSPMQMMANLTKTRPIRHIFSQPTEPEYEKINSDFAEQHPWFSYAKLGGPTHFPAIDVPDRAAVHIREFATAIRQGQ

Cc1[nH]c2ccccc2c(=O)c1O = experiment: purified protein; type: biochemical, Paenarthrobacter nitroguajacolicus; details: pH 6.5, air-saturated 0.1 M MTE, 5 mM NaCl, 2 mM EDTA, 20 °C, O2 co-substrate, also measured at pH 10.5

T1 sequence (O31266 whole entry C69S/H251A): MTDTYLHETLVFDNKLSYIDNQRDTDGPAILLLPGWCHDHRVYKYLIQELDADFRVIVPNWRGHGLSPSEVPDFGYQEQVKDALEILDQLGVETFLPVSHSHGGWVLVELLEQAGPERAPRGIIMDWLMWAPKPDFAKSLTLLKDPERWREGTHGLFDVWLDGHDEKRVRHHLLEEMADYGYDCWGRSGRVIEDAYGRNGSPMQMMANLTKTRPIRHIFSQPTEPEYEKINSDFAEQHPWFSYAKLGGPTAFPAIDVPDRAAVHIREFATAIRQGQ

With `Cc1[nH]c2ccccc2c(=O)c1O` [QND, (1H)-3-hydroxy-4-oxoquinaldine] the “X-ray crystal structure, 1.95 Å, crystal soaked with QND” value [1] was “we solved the x-ray structure of this variant in complex with the QND substrate” and the Kd [2] was 214 ± 9 µM.
“HOD (WT HOD = HOD C69S); (1H)-3-hydroxy-4-oxoquinaldine 2,4-dioxygenase (Paenarthrobacter nitroguajacolicus; C69S)” was tested, and the Km (Cc1[nH]c2ccccc2c(=O)c1O) was 3.2 ± 0.1 µM and the kcat (Cc1[nH]c2ccccc2c(=O)c1O) was 16.3 ± 0.1 s⁻¹.
“HOD (WT HOD = HOD C69S); (1H)-3-hydroxy-4-oxoquinaldine 2,4-dioxygenase (Paenarthrobacter nitroguajacolicus; C69S/D126A)” showed a Km (Cc1[nH]c2ccccc2c(=O)c1O) of 20.9 ± 0.6 µM and a kcat (Cc1[nH]c2ccccc2c(=O)c1O) of 0.19 ± 0.01 s⁻¹.
Work on “HOD (WT HOD = HOD C69S); (1H)-3-hydroxy-4-oxoquinaldine 2,4-dioxygenase (Paenarthrobacter nitroguajacolicus; C69S/H251A)” yielded a Km (Cc1[nH]c2ccccc2c(=O)c1O) of 58.9 ± 14.6 µM and a kcat (Cc1[nH]c2ccccc2c(=O)c1O) of 0.0006 ± 0.0001 s⁻¹.
